From the nanobody polyreactivity screen of Harvey et al. (2022)

Test: yeast display, Sf9 membrane polyspecificity reagent, FACS + sequencing; frameworks hold sequencing errors
Outline: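 Galactose-induced (36–48 hours) yeast carrying a synthetic nanobody display library were exposed to 10% biotinylated, detergent-solubilized Sf9 membrane reagent at 4 °C for 1 hour. FACS followed streptavidin microbead enrichment, using low and high (top ~1%) gates for expression (anti-HA) and reagent binding (streptavidin). Colony PCR, MiSeq 2 × 250 sequencing and CDR-length filtering followed. Labels for polyreactivity reflect the gate of origin.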

Sequence: QVQLVESGGGLVQAGGSLRLSCAASGSIFDGYAMGWYRQAPGKERELVASISSGGSTNYADSVKGRFTISRDNAKNTVYLQMNSLKPEDTAVYYCAAEWVWYKWEFEYWGQGTQVTVSS
- polyreactivity (PSR sort gate): high polyreactivity

Sequence: QVQLVESGGGVVQAGGSLRISCAASGRTFGVYVMGWYRQAPGKERELVAAISSSGGRTYYADSVKGRFTISRDNAKNTFYLQMNSLKPEDTAVFYCNAVRRREERDGPPNQMDYWGQGTQVTVSS
- polyreactivity (PSR sort gate): high polyreactivity

Sequence: QVQLLESGGGLVQAGGSLPVSCAASGSTFDTNDMVWYRQAPGKERELVAAISSGGDYADSVKGRFTISRDNAKNTVYLQMNSLKPEDTAVYYCAKDDTKWGQGTQVTVSS
- polyreactivity (PSR sort gate): low polyreactivity

Sequence: QVQLVESGGGLVQAGGSLRLSCAASGFIFWFYAMGWYRQAPGKERELVASISASGGSTNYADSVKGRFTISRDYAKKTVYLQMNSLKPEDTAVYYCAARKRYLRGYWGQGTQVTVSS
- polyreactivity (PSR sort gate): high polyreactivity

Sequence: QVQLEESGGGLVQAGGSLRLSCAASGRSFRKYAMGWYRQAPGKERELVARISWSAGSTYYADSVKGRFKISRDIAMYTVYLQMNSLKPVDTAFYFCIDDGYYRYGNRVLRPGYYCGQGTQVTVSS
- polyreactivity (PSR sort gate): high polyreactivity

Sequence: QVQLVESGGGLVQAGGSLRLRCAACGSIFTQYVMGWYRKAPGKERELVAAITWSGGNTYYADSVKGRFTISRDNAKNTVYLQMNSLKPEDTAVYYCAAYKPYSKYNDWGQGTQVTVSS
- polyreactivity (PSR sort gate): high polyreactivity

Sequence: QVQLVESGGGLVQAGGSLRLSCAASGSTFTHYVMGWYRQEPGKQREIVAAISDSGSTYYADSVKGRFTISRDNAKNTVYLQMNSLNPEDTAVYYCNADDVDFYYGYGYLYYDYWGQGTQVTVSS
- polyreactivity (PSR sort gate): low polyreactivity

Sequence: QVQLVESGGGLVQAGGSLRLSCAASGFTFYYYAMGWYRQAPRKERQLVAAFSWSGGSTYYADSVKGRFTISRDYAKNTVYLQMNRLKPVDTAVYYCNAYPGYRSRSDYGYWGQGTQVTVSS
- polyreactivity (PSR sort gate): high polyreactivity

Sequence: QVQLVESGGGLVQAGGSLRLSGAASGSTFVIYAMGWSRQAPGKERELVAAIRLGGGSTYYADSVKGRFTISRDNAKNTVYLQMNSLKPEDTEVYYCAAEVDQWYYRGYVYWGQGTQVTVSS
- polyreactivity (PSR sort gate): high polyreactivity

Sequence: QVQLVESGGGLVQAGGSLRLSCAASGRSILLNAMGWYRHAPGKERELVAAISRGGSTYYADSVKGRFTISRDNAKYSVYLQMNSLKPEDTAVYYCAARFWISHTHWDAGDYWGQGTQVTVSS
- polyreactivity (PSR sort gate): low polyreactivity

Sequence: QVQLVESGGGLVQAGGSLRLSCAASGRIYVIYGMGWYRQAPGKERELVATISWSGSSTSYADSVKGRFTISRDNAKNTVYLQMNSLKHEDTAVYYCNAPVQSETFDYWGQGTQVTVSS
- polyreactivity (PSR sort gate): high polyreactivity

Sequence: QVQLVESGGGLVQAGGSLRLSCAASGYIFRSYAMGWYRQAPGKERELVATISWIGGGTSYADSVKGRFTISRDNAKNTVYLHMNSLIPVDTAVYYCAAGPWAYGRRHAYYSRSFDYWGQGTQVTVSS
- polyreactivity (PSR sort gate): high polyreactivity

Sequence: QVQLVESGGGLVQAGGSLRLSCAASGSIFPHNTMGWYRQAPGKERELVAAITRDGTSTYYADSVKGRFTISRDNAKNTVYLQMNSLKPEDTAVYYCAARRARSFYVTYYGVGFNYWGQGTQVTVSS
- polyreactivity (PSR sort gate): low polyreactivity

Sequence: QVQLVESGGGLVQAGGSLRLSCAASGSIFYSNAMGWYRQAPGKERELVAAISWSGGSTYYADSVKGRFTISRDYAKNTVYLQMNSLKPEDTAVYYCAASYDIYYYDAASLDDYDYWGQGTQVTVSS
- polyreactivity (PSR sort gate): low polyreactivity

Sequence: QVQLVESGGGLVQAGGSLRLSCAASGSNFLCYTMGWYRQAPGKERELVAAISRTGGSTYYADSVKGRFTISRDNAKNTVYLQRNSLKPEDTAVYYCAASLYSITRARYDYWGQGTQVTVSS
- polyreactivity (PSR sort gate): high polyreactivity

Sequence: QVQLVESVGGFVQAGGSLRLSCAASGRTFGRYAMGWYRQAPGKEWELVAAITRSGSSTYYADSVKGRFTISRDNAKNTVYLQMNSMKPEDTAVYYCAALYGPFYSTGEYWGQGTQVTVSS
- polyreactivity (PSR sort gate): high polyreactivity

Sequence: QVQLVESGGGLVQAGGSLRLSFAASGSTFSEYALGLYRQAPGKERELVAAITSSSGSTYYADSVKGRFTISRVNAKNTVYLQMNSLKPEDTAVYYCNAYYRTVYYDWGDYEYWGEGTQVTVSS
- polyreactivity (PSR sort gate): high polyreactivity
